Measurements published in publication PMC10397247.

How the values were obtained:
4H1136-AA = target: T1, 4H1136-AA; assay: two-hybrid library CCmax;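 note: natural log of median RNA to DNA barcode read ratio; higher means stronger binding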
T1 chain: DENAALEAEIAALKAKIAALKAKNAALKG

4H3705-AA = target: T2, 4H3705-AA; assay: two-hybrid library CCmax; details: mean of both orientations;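 note: natural log of median RNA to DNA barcode read ratio; higher means stronger binding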
T2 chain: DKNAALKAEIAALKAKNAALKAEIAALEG

GCN2_T = assay: two-hybrid library CCmax;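 note: natural log of median RNA to DNA barcode read ratio; higher means stronger binding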
4H535-AA = target: T3, 4H535-AA; assay: two-hybrid library CCmax; details: mean of both orientations;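 note: natural log of median RNA to DNA barcode read ratio; higher means stronger binding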
T3 chain: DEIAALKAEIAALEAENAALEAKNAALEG

4H3365-AA = target: T4, 4H3365-AA; assay: two-hybrid library CCmax; details: mean of both orientations;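 note: natural log of median RNA to DNA barcode read ratio; higher means stronger binding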
T4 chain: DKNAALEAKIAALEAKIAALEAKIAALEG

4H465-AA = target: T5, 4H465-AA; assay: two-hybrid library CCmax; details: mean of both orientations;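 note: natural log of median RNA to DNA barcode read ratio; higher means stronger binding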
T5 chain: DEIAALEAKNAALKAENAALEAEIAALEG

4H_APH = target: T6, 4H_APH; assay: two-hybrid library CCmax; details: mean of both orientations
T6 chain: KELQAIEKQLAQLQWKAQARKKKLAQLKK

4H2750-AA = target: T7, 4H2750-AA; assay: two-hybrid library CCmax
T7 chain: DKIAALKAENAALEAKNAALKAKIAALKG

4H3020-AA = target: T8, 4H3020-AA; assay: two-hybrid library CCmax; details: mean of both orientations
T8 chain: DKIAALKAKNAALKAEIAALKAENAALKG

4H486-AA = target: T9, 4H486-AA; assay: two-hybrid library CCmax; details: mean of both orientations
T9 chain: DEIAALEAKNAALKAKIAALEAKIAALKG

4H2600-AA = target: T10, 4H2600-AA; assay: two-hybrid library CCmax; details: mean of both orientations
T10 chain: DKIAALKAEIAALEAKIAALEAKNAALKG

4H_GCN4 = assay: two-hybrid library CCmax
4H3782-AA = target: T11, 4H3782-AA; assay: two-hybrid library CCmax; details: mean of both orientations
T11 chain: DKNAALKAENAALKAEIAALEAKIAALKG

4H2721-AA = target: T12, 4H2721-AA; assay: two-hybrid library CCmax; details: mean of both orientations
T12 chain: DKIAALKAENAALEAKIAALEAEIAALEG

4H_BCR = target: T13, 4H_BCR; assay: two-hybrid library CCmax; details: mean of both orientations
T13 chain: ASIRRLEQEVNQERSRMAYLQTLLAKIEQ

4H3651-AA = target: T14, 4H3651-AA; assay: two-hybrid library CCmax; details: mean of both orientations
T14 chain: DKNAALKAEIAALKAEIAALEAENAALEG

4H2898-AA = target: T15, 4H2898-AA; assay: two-hybrid library CCmax; details: mean of both orientations
T15 chain: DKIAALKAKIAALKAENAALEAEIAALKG

4H895-AA = target: T16, 4H895-AA; assay: two-hybrid library CCmax; details: mean of both orientations
T16 chain: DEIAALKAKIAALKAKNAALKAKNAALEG

4H1802-AA = target: T17, 4H1802-AA; assay: two-hybrid library CCmax; details: mean of both orientations
T17 chain: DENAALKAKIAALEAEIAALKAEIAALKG

4H355-AA = target: T18, 4H355-AA; assay: two-hybrid library CCmax; details: mean of both orientations
T18 chain: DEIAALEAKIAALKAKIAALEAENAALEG

4H58-AA = target: T19, 4H58-AA; assay: two-hybrid library CCmax; details: mean of both orientations
T19 chain: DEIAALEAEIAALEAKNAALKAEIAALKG

4H140-AA = target: T20, 4H140-AA; assay: two-hybrid library CCmax; details: mean of both orientations
T20 chain: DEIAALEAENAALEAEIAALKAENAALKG

4H1257-AA = target: T21, 4H1257-AA; assay: two-hybrid library CCmax; details: mean of both orientations
T21 chain: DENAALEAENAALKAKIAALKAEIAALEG

4H2673-bA = target: T22, 4H2673-bA; assay: two-hybrid library CCNG1
T22 chain: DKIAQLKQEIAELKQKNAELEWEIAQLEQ

4H2586-bA = target: T23, 4H2586-bA; assay: two-hybrid library CCNG1
T23 chain: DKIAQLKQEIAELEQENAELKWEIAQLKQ

4H112-bA = target: T24, 4H112-bA; assay: two-hybrid library CCNG1
T24 chain: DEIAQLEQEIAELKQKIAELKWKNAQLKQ

4H457-bA = target: T25, 4H457-bA; assay: two-hybrid library CCNG1
T25 chain: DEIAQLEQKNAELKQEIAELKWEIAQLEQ

4H780-bA = target: T26, 4H780-bA; assay: two-hybrid library CCNG1
T26 chain: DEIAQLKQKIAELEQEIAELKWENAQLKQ

4H4073-bA = target: T27, 4H4073-bA; assay: two-hybrid library CCNG1
T27 chain: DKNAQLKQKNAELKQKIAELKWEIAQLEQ

4H968-bA = target: T28, 4H968-bA; assay: two-hybrid library CCNG1
T28 chain: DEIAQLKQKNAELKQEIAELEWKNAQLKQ

4H3112-bA = target: T29, 4H3112-bA; assay: two-hybrid library CCNG1
T29 chain: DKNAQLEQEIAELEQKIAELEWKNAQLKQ

4H170-bA = target: T30, 4H170-bA; assay: two-hybrid library CCNG1
T30 chain: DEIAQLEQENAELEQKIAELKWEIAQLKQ

4H2627-bA = target: T31, 4H2627-bA; assay: two-hybrid library CCNG1
T31 chain: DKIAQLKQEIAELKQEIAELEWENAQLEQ

4H3427-bA = target: T32, 4H3427-bA; assay: two-hybrid library CCNG1
T32 chain: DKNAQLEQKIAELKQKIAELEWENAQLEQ

4H754-bA = target: T33, 4H754-bA; assay: two-hybrid library CCNG1
T33 chain: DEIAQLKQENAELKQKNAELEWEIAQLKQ

4H683-bA = target: T34, 4H683-bA; assay: two-hybrid library CCNG1
T34 chain: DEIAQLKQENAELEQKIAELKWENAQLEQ

4H855-bA = target: T35, 4H855-bA; assay: two-hybrid library CCNG1
T35 chain: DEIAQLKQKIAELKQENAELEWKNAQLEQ

4H1831-bA = target: T36, 4H1831-bA; assay: two-hybrid library CCNG1
T36 chain: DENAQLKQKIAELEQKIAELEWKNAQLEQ

4H918-bA = target: T37, 4H918-bA; assay: two-hybrid library CCNG1
T37 chain: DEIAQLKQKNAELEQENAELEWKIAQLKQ

O8-bH = target: T38, O8-bH; assay: two-hybrid library CCNG1
T38 chain: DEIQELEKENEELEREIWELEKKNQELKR

4H2702-bA = target: T39, 4H2702-bA; assay: two-hybrid library CCNG1
T39 chain: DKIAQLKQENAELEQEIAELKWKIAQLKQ

4H3010-bA = target: T40, 4H3010-bA; assay: two-hybrid library CCNG1
T40 chain: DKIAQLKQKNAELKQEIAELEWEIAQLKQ

4H797-bA = target: T41, 4H797-bA; assay: two-hybrid library CCNG1
T41 chain: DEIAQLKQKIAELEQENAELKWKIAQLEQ

4H953-bA = target: T42, 4H953-bA; assay: two-hybrid library CCNG1
T42 chain: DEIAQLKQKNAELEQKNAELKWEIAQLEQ

4H346-bA = target: T43, 4H346-bA; assay: two-hybrid library CCNG1
T43 chain: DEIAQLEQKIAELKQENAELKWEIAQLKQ

4H1158-bA = target: T44, 4H1158-bA; assay: two-hybrid library CCNG1
T44 chain: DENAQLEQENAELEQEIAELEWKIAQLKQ

4H3926-bA = target: T45, 4H3926-bA; assay: two-hybrid library CCNG1
T45 chain: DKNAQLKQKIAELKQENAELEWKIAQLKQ

4H3907-bN = target: T46, 4H3907-bN; assay: two-hybrid library CCNG1
T46 chain: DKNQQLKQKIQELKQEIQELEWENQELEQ

4H575-bA = target: T47, 4H575-bA; assay: two-hybrid library CCNG1
T47 chain: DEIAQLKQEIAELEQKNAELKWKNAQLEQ

4H118-bA = target: T48, 4H118-bA; assay: two-hybrid library CCNG1
T48 chain: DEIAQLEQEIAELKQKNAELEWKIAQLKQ

4H2883-bN = target: T49, 4H2883-bN; assay: two-hybrid library CCNG1
T49 chain: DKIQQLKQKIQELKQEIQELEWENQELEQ

4H48-bN = target: T50, 4H48-bN; assay: two-hybrid library CCNG1
T50 chain: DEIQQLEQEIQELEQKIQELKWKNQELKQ

4H2944-bN = target: T51, 4H2944-bN; assay: two-hybrid library CCNG1
T51 chain: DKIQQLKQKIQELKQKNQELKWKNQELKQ

4H2937-bN = target: T52, 4H2937-bN; assay: two-hybrid library CCNG1
T52 chain: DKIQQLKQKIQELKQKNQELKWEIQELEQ

4H342-bN = target: T53, 4H342-bN; assay: two-hybrid library CCNG1
T53 chain: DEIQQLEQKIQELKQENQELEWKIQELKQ

4H491-bN = target: T54, 4H491-bN; assay: two-hybrid library CCNG1
T54 chain: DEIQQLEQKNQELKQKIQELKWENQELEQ

4H2696-bN = target: T55, 4H2696-bN; assay: two-hybrid library CCNG1
T55 chain: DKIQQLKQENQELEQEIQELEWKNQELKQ

Chain of 4H_GCN4 (chain, as listed by the source): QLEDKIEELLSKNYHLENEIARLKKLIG

With DENAALEAEIAALKAKIAALKAKNAALKG [4H1136-AA] the interaction score (4H1136-AA) was -0.12, the interaction score (4H3705-AA) was -1.5 and the interaction score (GCN2_T) was -1.68. The interaction score (4H535-AA) was 1.79, the interaction score (4H3365-AA) was -1.36 and the interaction score (4H465-AA) was -1.44. The interaction score (4H_APH) was -1.64, the interaction score (4H2750-AA) was -1.46 and the interaction score (4H3020-AA) was -1.2. It also gave an interaction score (4H486-AA) of -0.319, an interaction score (4H2600-AA) of 0.398 and an interaction score (4H_GCN4) of -1.83. For the same binder, the interaction score (4H3782-AA) was -0.406, the interaction score (4H2721-AA) was -1.15 and the interaction score (4H_BCR) was -1.73. It also gave an interaction score (4H3651-AA) of 2.2, an interaction score (4H2898-AA) of -0.29 and an interaction score (4H895-AA) of -1.31. For the same binder, the interaction score (4H1802-AA) was -1.42, the interaction score (4H355-AA) was 0.718 and the interaction score (4H58-AA) was -0.193. For the same binder, the interaction score (4H140-AA) was -1.41 and the interaction score (4H1257-AA) was 0.673.

DEIAQLEQEIAELKQKIAELKWKNAQLKQ [4H112-bA] showed an interaction score (4H2673-bA) of 1.17, an interaction score (4H2586-bA) of -0.329 and an interaction score (4H112-bA) of 2.02. The interaction score (4H457-bA) was 1.18, the interaction score (4H780-bA) was -0.588 and the interaction score (4H4073-bA) was 1.5. The interaction score (4H968-bA) was 0.422, the interaction score (4H3112-bA) was 1.9 and the interaction score (4H170-bA) was 0.905. For the same binder, the interaction score (4H2627-bA) was 1.89, the interaction score (4H3427-bA) was 1.34 and the interaction score (4H754-bA) was -0.627. For the same binder, the interaction score (4H683-bA) was 0.303, the interaction score (4H855-bA) was 0.496 and the interaction score (4H1831-bA) was -0.538. For the same binder, the interaction score (4H918-bA) was -1.12, the interaction score (O8-bH) was -2.98 and the interaction score (4H2702-bA) was 0.586. It also gave an interaction score (4H3010-bA) of 1.69, an interaction score (4H797-bA) of 0.104 and an interaction score (4H953-bA) of 0.0535. The interaction score (4H346-bA) was -0.491, the interaction score (4H1158-bA) was 0.722 and the interaction score (4H3926-bA) was 0.327. For the same binder, the interaction score (4H3907-bN) was 1.94, the interaction score (4H575-bA) was -0.781 and the interaction score (4H118-bA) was -1.17.

Work on DKIQQLKQENQELEQEIQELEWKNQELKQ [4H2696-bN] yielded an interaction score (4H2883-bN) of 1.32, an interaction score (4H48-bN) of -1.05 and an interaction score (4H2944-bN) of -0.274. It also gave an interaction score (4H2937-bN) of 0.131, an interaction score (4H342-bN) of -0.885 and an interaction score (4H491-bN) of 0.0322. For the same binder, the interaction score (4H2696-bN) was -0.134.
